Laboratory results reported in publication PMC7582325, “How Human H1 Histone Recognizes DNA” (Molecules, 2020).

B1: d(pA)12 x d(pT)12 (dsDNA)
DNA 1: AAAAAAAAAAAA
DNA 2: TTTTTTTTTTTT
modifications: 5' phosphate
B2: d(pA)20 x d(pT)20 (dsDNA)
DNA 1: AAAAAAAAAAAAAAAAAAAA
DNA 2: TTTTTTTTTTTTTTTTTTTT
modifications: 5' phosphate
B3: ODN1 x ODNcom1 (dsDNA)
DNA 1: CAGACGATCAGCGACGCGTC
DNA 2: GACGCGTCGCTGATCGTCTG
B4: d(pA)16 x d(pT)16 (dsDNA)
DNA 1: AAAAAAAAAAAAAAAA
DNA 2: TTTTTTTTTTTTTTTT
modifications: 5' phosphate
B5: ODN2 x ODNcom2 (dsDNA)
DNA 1: AGTGCCTGACCGTCGTCGAC
DNA 2: GTCGACGACGGTCAGGCACT
B6: d(pA)6 + d(pT)6 mixture (mixed)
?: AAAAAA
DNA: TTTTTT
modifications: 5' phosphate
B7: d(pA)3 + d(pT)3 mixture (mixed)
?: AAA
DNA: TTT
modifications: 5' phosphate

Each molecule was assayed against T1, H1° histone (human recombinant; H1 histone) (Homo sapiens, UniProt P07305) (assay: competition with […]'-[…]TAGAAGATCAAA, nitrocellulose filter binding). Conditions: 20 mM Tris-HCl pH 7.5, 5 mM MgCl2, 1 mM EDTA, 20 °C, 0.3 mg/mL H1; Kd taken as I50 with 12 µM labelled 12-mer (its Kd); error not above 10–12%.
T1 construct: gene H1-0; commercial recombinant human H1° (BioLabs M2501S), free histone
T1 sequence (P07305 2-194): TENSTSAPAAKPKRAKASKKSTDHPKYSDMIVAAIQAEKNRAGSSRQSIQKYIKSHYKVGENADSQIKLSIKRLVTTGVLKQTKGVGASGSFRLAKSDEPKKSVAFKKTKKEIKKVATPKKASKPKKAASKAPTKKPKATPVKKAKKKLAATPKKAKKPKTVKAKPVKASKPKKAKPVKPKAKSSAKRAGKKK
With `Cc1cn([C@H]2C[C@H](O)[C@@H](COP(=O)(O)O)O2)c(=O)[nH]c1=O` [dTMP] the Kd was 13000 µM. `Nc1ccn([C@H]2C[C@H](O)[C@@H](COP(=O)(O)O)O2)c(=O)n1` [dCMP] gave a Kd of 10000 µM. `Nc1ncnc2c1ncn2[C@H]1C[C@H](O)[C@@H](COP(=O)(O)O)O1` [dAMP] showed a Kd of 16000 µM.

What follows are molecules tested against T2, histone H1° (H1.0) (Homo sapiens, UniProt P07305 1-194) (assay: competition filter binding (I50); 5 mM Mg2+; 20 mM Tris-HCl pH 7.5, 5 mM MgCl2, 1 mM EDTA, 0.3 mg/mL H1, 1 h at 20 C; nitrocellulose filters; competition against 12.0 uM 32P 12-mer; mononucleotides dAMP/dCMP/dTMP not listed). Conditions: protein: commercial.
T2 sequence (P07305 whole entry): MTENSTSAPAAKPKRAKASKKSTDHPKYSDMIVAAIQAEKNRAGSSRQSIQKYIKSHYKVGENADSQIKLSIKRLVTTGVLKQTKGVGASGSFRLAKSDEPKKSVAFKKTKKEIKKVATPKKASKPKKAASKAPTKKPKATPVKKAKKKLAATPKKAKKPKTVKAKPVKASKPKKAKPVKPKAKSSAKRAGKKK
GACGCGTCGCTGATCGTCTG (ssDNA) [ODNcom1] gave a Kd of 3.7 µM. Work on AAAAAAAAAAAAAAAAAAAA (ssDNA, 5' phosphate) [d(pA)20] yielded a Kd of 10 µM. Work on TTTTTTTTTTTTTTTT (ssDNA, 5' phosphate) [d(pT)16] yielded a Kd of 5 µM. TTTTT (ssDNA, 5' phosphate) [d(pT)5] was tested, and the Kd was 75 µM. In the case of AAAAAAAA (ssDNA, 5' phosphate) [d(pA)8], the Kd is reported as 48 µM. With CCCCCCCCCCCC (ssDNA, 5' phosphate) [d(pC)12] the Kd was 20 µM. AGTGCCTGACCGTCGTCGAC (ssDNA) [ODN2] showed a Kd of 3.8 µM. ATG (ssDNA, 5' phosphate) [d(pATG)] was tested, and the Kd was 1500 µM. CCCCC (ssDNA, 5' phosphate) [d(pC)5] showed a Kd of 300 µM. TTTTTTTTTT (ssDNA, 5' phosphate) [d(pT)10] was tested, and the Kd was 25 µM. CCCCCCCC (ssDNA, 5' phosphate) [d(pC)8] gave a Kd of 34 µM. In the case of TAGAAGATCAAA (ssDNA) [12-mer hetero-ON, unlabeled competitor], the Kd is reported as 12 µM. TTTTTTTTTTTTTTTTTTTT (ssDNA, 5' phosphate) [d(pT)20] was tested, and the Kd was 4.6 µM. Molecule TTTT (ssDNA, 5' phosphate) [d(pT)4] has a Kd of 96 µM. In the case of CCCCCCCCCC (ssDNA, 5' phosphate) [d(pC)10], the Kd is reported as 25 µM. TAAAATCAAA (ssDNA) [10-mer d(TAAAATCAAA)] gave a Kd of 30 µM. Molecule TTTTTTTT (ssDNA, 5' phosphate) [d(pT)8] has a Kd of 76 µM. Molecule AAAAAAAAAAAAAAAA (ssDNA, 5' phosphate) [d(pA)16] has a Kd of 10 µM. Molecule AAAAAAAAAA (ssDNA, 5' phosphate) [d(pA)10] has a Kd of 28 µM. Molecule AAAAA (ssDNA, 5' phosphate) [d(pA)5] has a Kd of 70 µM. GTCGACGACGGTCAGGCACT (ssDNA) [ODNcom2] was tested, and the Kd was 4.1 µM. CAGACGATCAGCGACGCGTC (ssDNA) [ODN1] gave a Kd of 4 µM. AAAA (ssDNA, 5' phosphate) [d(pA)4] showed a Kd of 240 µM. For CCCCCC (ssDNA, 5' phosphate) [d(pC)6], the Kd was 61 µM. For AAAAAAAAAAAA (ssDNA, 5' phosphate) [d(pA)12], the Kd was 14 µM. With TATAATCTTA (ssDNA) [10-mer d(TATAATCTTA)] the Kd was 28 µM. With AAAAAA (ssDNA, 5' phosphate) [d(pA)6] the Kd was 57 µM. Molecule TTTTTTTTTTTT (ssDNA, 5' phosphate) [d(pT)12] has a Kd of 10 µM. For TCCCATCAAA (ssDNA) [10-mer d(TCCCATCAAA)], the Kd was 30 µM. With TTTTTT (ssDNA, 5' phosphate) [d(pT)6] the Kd was 48 µM.

Same assay, conditions: protein: commercial; blunt
For B1, the Kd was 7.5 µM. B2 gave a Kd of 3 µM. In the case of B3, the Kd is reported as 2.7 µM. B4 was tested, and the Kd was 3.8 µM. B5 was tested, and the Kd was 2.9 µM.

Same assay, conditions: protein: commercial; mixture of complementary strands, not a preformed duplex
For B6, the Kd was 55 µM. Molecule B7 has a Kd of 1000 µM.

These molecules were tested against T2, histone H1° (H1.0) (assay: filter binding; 5 mM Mg2+; 20 mM Tris-HCl pH 7.5, 5 mM MgCl2, 1 mM EDTA, 0.3 mg/mL H1, 1 h at 20 C; nitrocellulose filters; competition against 12.0 uM 32P 12-mer; mononucleotides dAMP/dCMP/dTMP not listed). Conditions: protein: commercial; label: 5'-32P.
In the case of TAGAAGATCAAA (ssDNA, 5' phosphate (32P)) [12-mer hetero-ON 32P probe], the Kd is reported as 12 µM.

These molecules were tested against T2, histone H1° (H1.0) (assay: competition filter binding (I50)). Conditions: 5' phosphate; 20 mM Tris-HCl pH 7.5, 5 mM MgCl2, 1 mM EDTA, 0.3 mg/mL H1, 1 h at 20 C; nitrocellulose filters; competition against 12.0 uM 32P 12-mer; mononucleotides ….
Work on d(pC)2 yielded a Kd of 4400 µM.
